Experimental data as given in patent US20160040149A1, “Compositions Having Dicamba Decarboxylase Activity and Methods of Use” (priority 2013, published 2016).

Assay: Saturation mutagenesis of SEQ ID NO:109: dicamba decarboxylation activity of point mutants (CO2 released), fold of backbone (Tables 7, 8, Megatable 1)
Details: decarboxylation activity (CO2 released) of point mutant vs unmutated backbone protein; backbone SEQ ID NO: 109

Molecule | Fold Activity [fold]
55 (protein, listed as Serratia sp.) MAKIICLEEHTLDKALVMASMPAALEQAPFLSDWGKTVTDGNLPDRSRPQIEKNDLINIKGADIGRGRLDDMDVAGITMQVLSVGGFPHLISAAEGVDLNRAANDRLADAVNAHPDRFAAFATLPWAQPDSAEKELERAVKELGFKGALLNGRPSTHFLDHPDYDGLLARFNALGVPLYLHPGLPVRSVQQAYYGGFSDEVTARLSMFGWGWHHEAGIHLLRLILSGAFDKYPNLQVISGHWGEMLPFWLQRLDDSLPQAATGLRRTIAQTFKEQVYVTPSGMLTLPHFQFIYALLGAERIIFSVDYPYQTLDGVKAFIQSLPVPEEAKEAIAFRNAERLLGLTS | 1.5
57 (protein, Collimonas fungivorans) MAKLICVEEHVLDPAVGAATQSLVRAEAPYLPDWGSRVLDGRHVADRSRPHVIAPSESARKALEMGEPRLADMDAASIDMQVLSYGGFPQLLPAAQAIDLNRAANDKLALAAQAHPARFAGFATLPWQAPEAAARELERAVKQLGLKGALINGRPGDTFLDDARYAPILAAFDELKVPLYVHPGLPLPAVQAPYYGGFERELSARLAMFAWGWHNEAGIQVVRMLLAGVFDRHPRLQLISGHWGEMVPFFLQRLEDSIPQEASGLQRPIVQTYREHVYISPSGMFTLPHFQFIHALMGAQRILYSIDYPYQSLDGARAFIERLPISDTDKALIAHRNAERLLHL | 2
48 (protein, listed as Amycolatopsis mediterranei) MASMKLYGLEEHFVTADVIEAWRRRDPGLAEPMMKWAVASDITPALLDVDGGRIAAMDDAGIDTTVLSLTTPGLQNLDAAEAVALQAPTNDLIAAAVRRHPGRFQGFATLATSAPAAAADELRRAVTELGLNGALVNANSRGRALDAPGFWDIYEAAEDLRAPVYLHPGVPVPAVTEAYYRGFGEPVNSMLATGAFGWHYDAGLTILRMIVAGVFDRFPGLQVILGHWGEVVLFYLDRVAAMDKLTALRRPIAEYFRSNIFITPGGISSHKYLRWSLETVGVERIMYASDYPFNTERAGSARRFLDTAPVDEAGRERIAYRNWEELIAGIRR | 1.5
51 (protein, listed as Mycobacterium gilvum) MARVIAIEEHYAHPGLQPAEALANLRKHPQLARIQDKLEDLGAGRLADMDAAGIDMQVLSHTVPGAEALPAAQAVDVVRQTNDDLAEVIAAHPDRFAGFAALPMRDPQAAATELQRAVGTLGFCGAMINGLIEGRFLDHPDFTPLLSTAADLGVPLYLHPSFPPPQVAQIYFGGLPPVLADLLATAGWGWHAETALHVLRLISTGVFDRLPELRVIVGHMGEMIPFALARIDTVLSPMTELRQPVAQYFQTNVWFTTSGYTTFPPLQCALSTVGIDRLIFSVDYPYTDNASARALLDTAPISPVDREKLAHATVEALLRV | 1.7
47 (protein, listed as Serratia odorifera) MAKIICLEEHTLDKALVMASMPAALAQAPFLSDWGKTITDGNLPDRSRPQIEKNDLINVKGADIGRGRLDDMDEAGITMQVLSVGGFPHLISAAEGVDLNRAANDRLANAVNAHPDRFAAFATLPWAQPDAAEKELERAVKELGFKGALLNGRPSIHFLDHPDYDGLLARFNALGVPLYLHPGLPVRSVQQAYYSGFSDEVTARLSMFGWGWHHEAGIHLLRLILSGAFDKYPNLQVISGHWGEMLPFWLQRLDDSLPQAATGLRRTITQTFREQVYVTPSGMLTLPHFQFIYALLGAERILFSVDYPYQTLDGVKAFIQSLPVPEEAKEAIAFRNAERLFGLTS | 1.2
56 (protein, Enterobacter aerogenes) MAKIICLEEHYLDSELGRACMPVALEQAPFLGDWGKTVADGHNPDRSRPQIEKNALINAKGADLGSRRLRDMDEAGITLQILSVGGFPQLAPEDEAVTLNTAANDRLAEAVRNHPDRFAAFATLPWAQPKDAENELVRAVEKLGFKGALLNGRPSSCFLDHPDYDSLLSRFNKLNVPLYLHPGLPLKSVQQAYFTGFSAEVNARLSMFGWGWHHEAGIHLLRLMLSGAFDKYPNMQVISGHWGEMLPFWLQRLDDSLPLAATGLSRTLTRTFQEHVYVTPSGMLTLPHFKFIYELMGAERILFSVDYPYQTLDGVKTFIDSLPVNKAEKEAIAFRNAERLLGITA | 1.3
50 (protein, listed as Streptomyces sp.) MARIVTLEEHWTDPAVTAAGMPNLLDHVPGYAAAFDPDTGMPYPRHPELLEDLGAARIADMDRHGITTQVLSLVNTFLPADVAPRLTAAANDAMAAAVEAFPGRFAAFATLPTAVPGAAADELRRCVGELGFVGTMIMGRTDGEFLDQPRFDPILRAASDLSVPVYLHPAPPPVAVSEASYAGGLSPAVSAAFRLAAWGWHQETAVHLLHLVLAGVLDRYPGLQFVLGHWGEFIPFYLDRLDESMPRRMTGLDRTFREYFRDNVFITPSGMFSQAQLRYCADTVGTDRIIHSVDFPMLGNEGAVSFLTDSHLSREDQEKIAHGNADALLGLG | 1.7
44 (protein, listed as Mycobacterium avium) MARIITVEEHFQHPEVSARVAELTGPAVEGLAEFGNAFSLDPDSTARLGGNRLAHMDQVGIDVQVVSHGNGSPGTLQHPEAVELCRRVNNDLAAQIAENPDRFRGFATLPLYDPAAAAEELRRCVGDLGFVGALIAGSYDGLFLDDERFDPILTAAEAVDFPIYVHPGLPEAPVSQRYYAGSWPASVHMMFSGPAFGWHAEAGIHIVRLILSGALDRHPTLKLLSGHWGELAAFYLERLDETLGLLPTGLERAPSDYYRQQVWITPSGMYNQNQLNFMTAELGAQRIIYSEDFPYVVRDNVSTFLEQAGLSEADTHAIAHTNAEALLRI | 0.7
53 (protein, listed as Granulicella tundricola) MARTITLEEHFVTDSFLRATGAYDKPAPPWLAQLQPKLLDLGDGRIAAMDEAGIDLQVLSLAALGFDALDAATATPLVHDINDELAAAVRANPTRLAAFASLALKDPQSAARELERAIQKLGFRGVLLDGTTDGLFLDDPRFTPVFEAAVALNVPIYLHPAPPPESVFDTYFTGLPEGVGQMLSIAGWGWHAETALHTLRLITNGVFDRYPTLQLIIGHMGEMLPMALARTSKALSHAARLRQPVAAYFQSNIHLTTSGYFTQPPLRCALDVVGIDRLMFSIDYPFSANTLGRDYLTELEQTLTPEDLAKLIHRNAESLLNLS | 1.6
46 (protein, listed as Rhodococcus opacus) MARIITLEEHYLDPAIAAASAPLARELSPDFAAAYDPASGLSYTPSAQVLQDLGQRRIADMDTHGISMQVLSCLTTQQVPADVAPDLVRAANDTAAAAVRAHPDRFAAFAALPTTAPDAAATELARCIDDLGFVGTMINGRTDGEFLDAPRFDPILATAAARNVPIYLHPAVPPRATSDSNYAGLAPLVTARLQTSAWGWHQETAVHFLHLVLSGVLDRYPNLQFILGHWGEMIPFYLDRLDEALPQAVTNLDRTISDYVRENVYITPSGMFNQAQLQYCVETLGVDRILYSVDYPFIGNDGAVSFLDEANLPDEAKHQIAHQNTEKLLGL | 1.1
43 (protein, listed as Rhizobium leguminosarum) MAQGKIALEEHFAIPETLQDSAGFVPGDYWTELSARLLDIQDKRLRLMDTHGIEKMILSLNAPAVQAIPDKAKAVEISRRANDFLAEQCVKNPNRFLGFAALPLQDPDAATQELQRCVTTMGFVGALVNGFSQEGDGTTPLYYDLPQYRPFWAEVEKLDVPFYLHPRNPLPQDSRIYAGHSWLMGPTWAFAQETAVHALRLMGSGLFDEHPALRIIVGHMGEGLPYMMWRIDNRNAWVKVEKSYPAKRPIADYFNENFYITTSGNFRTQSLIDAMLEIGADRILFSADWPFENVDHAANWFDSATISEADRLKIGRTNAVSLFKLDR | 1
49 (protein, listed as Streptomyces sp.) MAKIIALEEHFSDPAVAKAGAARARALSPGFAASYSPASGLPYSPSPEVLENLAEKRLADMDAGGITMQVLSGLGAQTVPADVAPALVAGSNDKAAAAVRAHPDRFAAFAALPTATPEAAVAELDRSVNELGFVGTLIMGRTEGEFLDAPRFEPILARAAALKVPVFLHPGVPPREITDSNYAAGLPTGIGTRLQTAAWGWHQETAVHFLHLVHSGVLDRYPDLQFILGHWGEMIPFYLDRVDEALPQRATGLDRSFHEYFRENVYLAPSGMWSQAQLRFCLETVPLERIVFAVDYPFIGNEGAVPFLEKAELPQADKRKIAHENAERLLGL | 2
54 (protein, listed as Streptomyces sp.) MAKIIALEEHFSDPAVAKAGAARAQALSPGFAASYSPASGLPYSPSPEVLENLAEKRLADMDAGGITMQVLSGLGAQTVPADVAPALVAGSNDKAAAAVRAHPDRFAAFAALPTAAPEAAVAELDRSINELGFVGTLIMGRTEGEFLDAPRFEPILARAAALKVPVFLHPGVPPREITDSNYAAGLPTGIGTRLQTAAWGWHQETAVHFLHLVHSGVLDRYPGLQFILGHWGEMIPFYLDRVDEALPQRATGLDRSFHEYFRENVYLAPSGMWSQAQLRFCLETVPLERIVFAVDYPFIGNEGAVPFLEKAELPEADKRKIAHENAERLLGL | 1.4
52 (protein, listed as Streptomyces sp.) MAKIIALEEHFSDPAVAKAGAARAQALSPGFAASYSPASGLPYSPSPEVLENLAEKRLADMDAGGITMQVLSGLSAQTVPADVAPALVAGSNDKAAAAVRAHPDRFAAFAALPTAAPEAAVAELDRSVNELGFVGTLIMGRTEGEFLDAPRFEPILARAAALKVPVFLHPGVPPREITDSNYAAGLPTGIGTRLQTAAWGWHQETAVHFLHLVHSGVLDRYPDLQFILGHWGETIPFYLDRVDEALPQRATGLDRSFHEYFRENVYLAPSGMWSQAQLRFCLETFPLERIVFAVDYPFIGNEGAVPFLEKAELPEADKRKIAHENAERLLGL | 1.9
45 (protein, Mycobacterium sp) MANDDLAEVIAAHPDRFAGFAALPMRDPQAAAVELQRAVGTHGFCGAMINGLIEGRFLDDPAFAPLLSTAADLGVPLYLHPSFPPPQVAEIYFGGLAPVLGDLLATAGWGWHAETALHVLRLVATGVFDRLPELWVIVGHMGEMIPFALARIDTVLSPVAQLRQPVAQYFQTNVWFTTSGYTTFPPLQCALSTVGIDRLIFSVDYPYTDNTSARALLDTAPISPVDREKLAHGTVEALLRV | 1.7
